Measured values: patent publication US12083109B2, “Neurokinin antagonists and uses thereof” (California Institute of Technology, priority 2017, dated 2024)
“Also recorded” adds a separate entry of the source.

Tested on: Tac2
Experiment: Tone fear test, Tac2 shRNA knockdown
Type: in vivo, mouse
Conditions: SIS mice
Description: Small hairpin RNA (shRNA) for the mouse Tac2 gene (NM_009312.2) were designed using the online designing tool siDirect 2.0 (http://sidirect2.mai.jp/) (Naito et al., 2009; incorporated by reference in its entirety).
8-16 week old mice were anesthetized with isoflurane and mounted in a stereotaxic apparatus (Kopf Instruments). Anesthesia was maintained throughout surgery at 1-1.5% isoflurane. The skull was exposed and small burr holes produced dorsal to each injection site using a stereotaxic mounted drill. Virus was backfilled into pulled fine glass capillaries (˜50 μm diameter at tip) and pressure injections of 300 nl were made bilaterally into either the dBNSTa (AP +0.25, ML ±0.85, DV −4.1), DMH (AP −1.3, ML±0.35, DV −5.6), or CeA (AP −1.4, ML ±2.6, DV −4.73) at a rate of 30nl per minute using a nanoliter injector (Nanoliter 2000, World Precision Instruments) controlled by an ultra microsyringe pump (Micro4, World Precision Instruments). Capillaries remained in place for 5 minutes following injections to allow for full diffusion of virus and to reduce backflow up the injection tract. Skin above the skull was then drawn together and sealed with GLUture (Zoetis). For bilateral cannula implantations, single or double guide cannulas (custom, Plastics One) aimed 0.5 mm above each region were implanted and held in place with dental cement (Parkell). Compatible dummy cannulas with a 0.5 mm protrusion at the tip were inserted to prevent cannula clogging. Directly following surgery, mice were given a subcutaneous injection of ketoprofen (2 mg/kg) and supplied with drinking water containing 400 mg/L sulphamethoxazole and 200 mg/L ibuprofen and monitored for 7 days. Dummies were replaced every 2-3 days to keep cannula tracts clean. All injections were subsequently verified histologically.
The protocol for tone trace fear conditioning was performed as previously described (Cushman et al., 2014; incorporated by reference in its entirety) using fear conditioning boxes previously described in detail (Haubensak et al., 2010; Kunwar et al., 2015; incorporated by reference in their entirety). Briefly, mice were transported in squads of four on a white cart to a novel behavioral testing room containing 4 sound-attenuating fear-conditioning chambers (Med Associates). This “training context” was comprised of flat grid flooring (wired to a shock generator and scrambler for footshock delivery, Med Associates), houselights, and the presence of an internal fan for background noise. Chambers were sprayed with 70% Simple Green solution on the underlying chamber pan to generate a unique contextual scent and chambers were cleaned with 70% EtOH between squads. […]

Row | Molecule | acute (during) freezing to conditioned tone (AAV shRNA in dBNSTa) | freezing to conditioned tone (AAV shRNA in CeA) | persistent (post) freezing to conditioned tone (AAV shRNA in dBNSTa)
1 | shRNA-2: small hairpin RNA for mouse Tac2 gene (SEQ ID NO: 11, 12), expressed from AAV5-H1-shRNA-CMV-zsGreen (nucleic acid) chain 1: CCGCCTCAACCCCATAGCAATTAGCTTCCTGTCACTAATTGCTATGGGGTTGAGGCTTTTTT chain 2: AAAAAAGCCTCAACCCCATAGCAATTAGTGACAGGAAGCTAATTGCTATGGGGTTGAGGCGG | additionally reduced; also recorded: significantly reduced | – | –
2 | shRNA-1: small hairpin RNA for mouse Tac2 gene (SEQ ID NO: 9, 10), expressed from AAV5-H1-shRNA-CMV-zsGreen (nucleic acid) chain 1: CCGACGTGGTTGAAGAGAACACCGCTTCCTGTCACGGTGTTCTCTTCAACCACGTCTTTTTT chain 2: AAAAAAGACGTGGTTGAAGAGAACACCGTGACAGGAAGCGGTGTTCTCTTCAACCACGTCGG | had no effect | blocked | blocked; also recorded: strongly reduced
